The source of these data is US20230212304A1 (BIOSION, published 2023).

Assay [1] addresses T1, recombinant human CTLA4 protein with human IgG1 Fc tag at the C-terminus (Acro biosystems, Cat#CT4-H5255) (human, UniProt P16410 37-162).
T1 sequence (looked up): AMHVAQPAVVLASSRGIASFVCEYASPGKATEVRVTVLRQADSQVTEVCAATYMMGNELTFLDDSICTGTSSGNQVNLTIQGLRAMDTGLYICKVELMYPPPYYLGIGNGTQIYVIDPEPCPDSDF
Kind of assay: cell-based or functional assay.

Assay [2] concerns the target T2, recombinant human CTLA4-his protein (Acro biosystems, Cat#CT4-H5229) (human, UniProt P16410 37-162).
T2 construct: bought recombinant protein; not shown: his tag
T2 sequence (looked up): T1 sequence (looked up)
Description: SPR, Biacore T200; antibody captured, CTLA4-his as analyte. The method, then:
(§1) Un-reacted moieties on the biosensor surface were blocked with ethanolamine. […] The antigen-antibody association kinetics was followed for 2 minutes and the dissociation kinetics was followed for 10 minutes. The association and dissociation curves were fit to a 1:1 Langmuir binding model using BIAcore evaluation software.

Assay [3] has as its target T3, cynomolgus monkey CTLA4-his protein (Acro biosystems, Cat#CT4-C5227) (cynomolgus monkey, UniProt G7PL88 36-161).
T3 construct: bought recombinant protein; also called Cynomolgus CTLA4-his; not shown: his tag
T3 sequence: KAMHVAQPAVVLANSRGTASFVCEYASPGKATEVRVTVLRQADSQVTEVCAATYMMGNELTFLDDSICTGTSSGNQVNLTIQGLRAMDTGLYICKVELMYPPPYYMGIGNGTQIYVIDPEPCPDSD
The assay is described as above. The method, then: as §1

Assay [4] addresses T1, recombinant human CTLA4 protein with …. Description: capture ELISA: antibody captured on anti-mouse IgG F(ab')2 coated plate, biotin human CTLA4-Fc 26 ng/ml, streptavidin-HRP, OD(450-630). As for the experimental part:
(§2) Plates were washed once with wash buffer (PBS+0.05% v/v Tween-20, PBST) and then blocked with 200 µl/well blocking buffer (PBST with 5% w/v non-fatty milk) for 2 hours at 37° C. […] After a final wash, plates were incubated with 100 µl/well substrate TMB (Innoreagents, Cat#TMB-S-002). The reaction was stopped in 15 minutes at room temperature with 50 µl/well 1M H₂SO₄, and the absorbance of the each well was read on a microplate reader using dual wavelength mode with 450 nm for TMB and 630 nm as the reference wavelength, then the OD (450-630) values were plotted against antibody concentration. Data was analyzed using Graphpad Prism software and EC₅₀ values were reported.

Assay [5] shares this target. Kind of assay: capture ELISA: antibody captured on coated plate (anti-human IgG Fc for the chimeric antibodies), biotin human CTLA4-Fc, streptavidin-HRP, OD(450-630). As for the experimental part:
as §2
For the capture ELISA, AffiniPure Goat Anti-Human IgG, Fcy fragment specific (Jackson Immuno Research, Cat#109-005-008) was used instead of AffiniPure Goat Anti-Mouse IgG, F(ab′)₂ fragment specific, 100 µl/well.
In general terms: ELISA stands for enzyme-linked immunosorbent assay.

The target in assay [6] is T2, recombinant human CTLA4-his protein …. Description: BLI, Octet; antibody from cell supernatant on AHC sensor, CTLA4-his as analyte. The method, then: Briefly, AHC biosensors (anti-human IgG Fc capture, from ForteBio) were presoaked with 10 mM glycine (pH 1.5) for 3 seconds, and then dipped in a well with running buffer (0.5% w/v BSA in PBST) for 3 seconds, the soaking and dipping steps were repeated for three times. […] A new baseline was run for 180 seconds in another well with running buffer. […] Finally, sensors were presoaked with 10 mM glycine (pH 1.5) for 3 seconds, and then were dipped in a well with running buffer for 3 seconds, the soaking and dipping steps repeated for three times. The association and dissociation curves were fit to a 1:1 Langmuir binding model using ForteBio Data Analysis 8.1.
In general terms: Biolayer interferometry detects binding as a change in optical thickness at a sensor tip.

The target in assay [7] is T1, recombinant human CTLA4 protein with …. Description: cell based blocking FACS: antibody pre-mixed with human CTLA4-Fc (1 ug/mL), added to Daudi cells; blocked ligands: cell surface CD80/CD86. As for the experimental part:
Daudi cells were harvested from cell culture flasks at the log phase, washed twice and re-suspended in PBS containing 2% v/v Fetal Bovine Serum (FACS buffer). […] Cells were washed twice and re-suspended in FACS buffer. Fluorescence was measured using a Becton Dickinson FACS Canto II-HTS equipment. Data was analyzed using Graphpad Prism software and IC₅₀ values were reported.

Assay [8] has the same target. Kind of assay: competitive ELISA: antibody pre-mixed with biotin human CTLA4-Fc (65 ng/ml), added to plate coated with the benchmark; competitor: coated Yervoy. The method, then:
Plates were washed once with wash buffer, blocked with 200 µl PBST with 5% w/v non-fatty milk, incubated for 2 hours at 37° C., and washed 4 times.
After incubation at 37° C. for 40 minutes, plates were washed 4 times again using wash buffer. Then the plates were added and incubated with 100 µl/well streptavidin conjugated HRP (1:10000 dilution in PBST, Jackson Immuno Research, Cat#016-030-084, 100 µl/well) for 40 minutes at 37° C. Plates were finally washed using wash buffer. Finally, TMB was added and the reaction was stopped using 1M H₂SO₄, and the absorbance of the each well was read on a microplate reader using dual wavelength mode with 450 nm for TMB and 630 nm as the reference wavelength, then the OD (450-630) values were plotted against antibody concentration. Data was analyzed using Graphpad Prism software and IC₅₀ values were reported.

Substitutions are numbered along the chain they refer to.

B1: mouse anti-CTLA4 monoclonal antibody D1B8 (antibody, V domains shown)
VH: QIQLQQSGPELVKPGASVKISCKASGYTFTDYYINWVKQRPGQGLEWIGWIYPGNNNTRYNEKFKGKATLTIDTSSSTAFMHLSSLTSEDSAVYFCARYYFDYWGQGTTLTVSS
VL: DIQMTQSPSSLSASLGERISLTCRASQEITGYLSWLQQKPDGTIKRLIYAASTLDSGVPQRFSGSRSGSDYSLTISSLESEDFADYYCLQYASYPRTFGGGTKLEIK
notes: mouse mAb purified from hybridoma supernatant
As a reminder, the Kd is a measure of binding affinity in units of concentration. What is called koff is the rate constant with which the complex falls apart. As usually defined, the kon is the rate constant with which the complex forms. The term EC50 denotes the concentration giving half of the maximal effect. On to B1, for which the “EC50 of IL-2 release (GS-J1 T cells + GS-C1/CD80 cells + human CTLA4-Fc, IL-2 HTRF)” value (“EC50 of IL-2 release” below) in assay [1] worked out at 43.6 nM. Moreover, in assay [2], the equilibrium dissociation constant (Kd) turned out to be 2.24 nM, the off-rate constant (koff) amounted to 0.000495 s⁻¹ and the kon was 221000 M⁻¹ s⁻¹. For the same molecule, in assay [3], the affinity, expressed as Kd, was 1.18 nM; the koff is 0.000532 s⁻¹; the kon was found to be 451000 M⁻¹ s⁻¹. In addition, the EC50 in assay [4] was determined as 1.11 nM. Further, the EC50 in assay [5] stood at 5.78 nM.

B2: chimeric D1B8 anti-CTLA4 antibody (antibody, human IgG4 S228P, kappa, V domains shown)
VH: B1 VH
VL: DIQMTQSPSSLSASLGERISLTCRASQEITGYLSWLQQKPDGTIKRLIYAASTLDSGVPQRFSGSRSGSDYSLTISSLESEDFADYYCLQYASYPRTFGGGTKLEIKR
notes: mouse variable domains on human IgG4/kappa
In the case of B2, the EC50 in assay [5] amounted to 2.84 nM.

B3: huD1D5-V2 (antibody, human IgG4 S228P, kappa, V domains shown)
VH: EVQLVESGGGLVKPGGSLRLSCAASGFTFSDYGMAWVRQAPGKGLEWVAFISNLAYSVYYADTETGRFTISRDNAKNSLYLQMNSLRAEDTAVYYCARSGLPYAMDYWGQGTTVTVSS
VL: DIQMTQSPSSLSASVGDRVTITCRASQDISNYLNWYQQKPGKTVKLLIYYISRLHSGVPSRFSGSGSGTDFTLTISSLQPEDVATYFCQQGRMLPWTFGGGTKVEIKR
notes: humanized IgG4/kappa; tested as 293F cell supernatant on Octet; also called hu CTLA4 D1D5-V2
Turning to B3, in assay [6], the Kd was 0.72 nM, the koff is 6.25e-05 s⁻¹ and the kon was 86800 M⁻¹ s⁻¹.

B4: huD1D5-V6 (antibody, human IgG4 S228P, kappa, V domains shown)
VH: B3 VH
VL: B3 VL with T43V, V44P
notes: humanized IgG4/kappa; tested as 293F cell supernatant on Octet; also called hu CTLA4 D1D5-V6
In the case of B4, in assay [6], the Kd worked out at 25.8 nM, the koff was 0.00157 s⁻¹ and the kon turned out to be 60900 M⁻¹ s⁻¹.

B5: huD1D5-V11 (antibody, human IgG4 S228P, kappa, V domains shown)
VH: B3 VH with N74D
VL: B3 VL with T43V, V44P, F87Y
notes: humanized IgG4/kappa; tested as 293F cell supernatant on Octet; also called hu CTLA4 D1D5-V11
As to B5, in assay [6], the equilibrium dissociation constant (Kd) amounted to 6.94 nM, the koff is 0.000538 s⁻¹ and the kon amounted to 77500 M⁻¹ s⁻¹.

B6: huD1D5-V3 (antibody, human IgG4 S228P, kappa, V domains shown)
VH: B3 VH with N74D
VL: B3 VL
notes: humanized IgG4/kappa; tested as 293F cell supernatant on Octet; also called hu CTLA4 D1D5-V3
Consider B6, for which, in assay [6], the Kd is below 0.001 nM, the koff is below 1e-07 s⁻¹ and the kon is 115000 M⁻¹ s⁻¹.

B7: huD1D5-V12 (antibody, human IgG4 S228P, kappa, V domains shown)
VH: B3 VH with A49S
VL: B3 VL with T43V, V44P, F87Y
notes: humanized IgG4/kappa; tested as 293F cell supernatant on Octet; also called hu CTLA4 D1D5-V12
In the case of B7, in assay [6], the Kd was 37.4 nM, the koff amounted to 0.00133 s⁻¹ and the kon came to 35500 M⁻¹ s⁻¹.

B8: huD1D5-V10 (antibody, human IgG4 S228P, kappa, V domains shown)
VH: B3 VH
VL: B3 VL with T43V, V44P, F87Y
notes: humanized IgG4/kappa; tested as 293F cell supernatant on Octet; also called hu CTLA4 D1D5-V10
For B8, in assay [6], the Kd was 33 nM, the koff came out at 0.00163 s⁻¹ and the kon was determined as 49300 M⁻¹ s⁻¹.

B9: huD1D5-V5 (antibody, human IgG4 S228P, kappa, V domains shown)
VH: B3 VH with L45P, N74D
VL: B3 VL with T43V, V44P
notes: humanized IgG4/kappa; tested as 293F cell supernatant on Octet; also called hu CTLA4 DID5-V5
In the case of B9, in assay [6], the Kd is 1.73 nM, the koff was 0.00018 s⁻¹ and the kon is 104000 M⁻¹ s⁻¹.

B10: huD1D5-V4 (antibody, human IgG4 S228P, kappa, V domains shown)
VH: B3 VH with A49S
VL: B3 VL
notes: humanized IgG4/kappa; tested as 293F cell supernatant on Octet; also called hu CTLA4 D1D5-V4
Consider B10, for which, in assay [6], the Kd worked out at 4.36 nM, the koff worked out at 0.000408 s⁻¹ and the kon was found to be 93500 M⁻¹ s⁻¹.

B11: huD1D5-V8 (antibody, human IgG4 S228P, kappa, V domains shown)
VH: B3 VH with A49S
VL: B3 VL with T43V, V44P
notes: humanized IgG4/kappa; tested as 293F cell supernatant on Octet; also called hu CTLA4 D1D5-V8
Consider B11, for which, in assay [6], the Kd came to 68.1 nM, the koff was determined as 0.00196 s⁻¹ and the on-rate (kon) was found to be 28800 M⁻¹ s⁻¹.

B12: mouse anti-CTLA4 monoclonal antibody D2A4 (antibody, V domains shown)
VH: QVQLQQPGAELVKPGSSVNLSCKASGYTFTSYWVHWVKQGPGRGLEWIGRIDPNRGGTYYNENFKTKAALTVDSPSSTAYMHLSSLTSEDSAVYYCARGGLNYYALDYWGQGTSVTVSS
VL: DIQMTQSPASLFASLGETVTITCRASENIYSYLAWYQQKQGKSPQLLVYNANTLTEGVPSSFSGSGSGTQFSLKINTLQPEDFGTYYCQHHYGIPFTFGSGTKLEIK
notes: as for B1
The IC50 is the concentration needed to halve the response being measured. With B12, in assay [1], the “EC50 of IL-2 release” value is 38.3 nM. In addition, the Kd in assay [2] and in assay [3] was 2.24 nM in each case. The off-rate (koff) is 0.00153 s⁻¹ in assay [2] and 0.00076 s⁻¹ in assay [3]. For the same molecule, the kon in assay [2] was 671000 M⁻¹ s⁻¹; in assay [3], 340000 M⁻¹ s⁻¹. In addition, the EC50 in assay [4] was 0.245 nM. In addition, the IC50 was determined as 7.12 nM in assay [7] and 3.85 nM in assay [8].

B13: mouse anti-CTLA4 monoclonal antibody D1G6 (antibody, V domains shown)
VH: EVQLQQSGPELVKPGASVKLSCKASGNTFTTYVLNWVKQKPGQGLEWIGYFNPYNDAIKYNEKFKGKATLTSDKSSSTAYMELSSLTSEDSAVYYCARFEGGGYAMDYWGQGTSVTVSS
VL: DIVLTQSPASLAVSLGQRATISCRASQSVGTSSYSYIHWYQQKPGQPPKLLIKYASDLESGVPARFSGSGSGTDFTLNIHPVEEEDTATYYCQHSWEIPYTFGGGTKLEIK
notes: as for B1
With B13, the “EC50 of IL-2 release” value in assay [1] was 41.5 nM. In addition, in assay [2], the Kd stood at 9.06 nM, the koff is 0.000695 s⁻¹ and the kon was 76700 M⁻¹ s⁻¹. Further, in assay [3], the affinity, expressed as Kd, was 1.96 nM; the koff was determined as 0.000662 s⁻¹; the kon was 338000 M⁻¹ s⁻¹. Moreover, in assay [4], the EC50 is 0.0979 nM. Further, the IC50 in assay [8] was determined as 0.445 nM.
